Test results from patent publication US20220306688A1 (EMORY UNIVERSITY, published 2022).

Molecular target: T1, KRAS-G12V (Homo sapiens, UniProt P01116 1-189, limits assumed)
T1 construct: also called G12V mutant of KRAS
Assay: disruption of the JAK1/KRAS-G12V interaction; the sentence names TR-FRET (FIG. 2B) and GST pull-down (FIG. 2C) and does not say which gave the value; competitor JAK1

B1: RasKi: 8-mer 603-610 (peptide)
peptide: MDYKDDEG
notes: It was co-expressed or transduced by lentivirus in some cell assays; also called 8-mer WT; 8-mer peptide
Which IC50 does the source give for B1 here?
Its IC50 is 870 nM.
